Biological target: the molecule itself
Test: SEC; analytical gel filtration, HiLoad 16/60 Superdex 200, 50 mM Tris, 150 mM KCl, pH 8.0, 0.1% LDAO; calibrated with soluble protein standards (B-amylase, carbonic anhydrase, cytochrome c); elution at 72 ml against 71 ml expected for a tetramer

B1: human cardiac ryanodine receptor (RyR2) pore-forming region (domain or fragment, UniProt Q92736 4758-4967, looked up)
chain: SSVTHNGKQLVLTVGLLAVVVYLYTVVAFNFFRKFYNKSEDGDTPDMKCDDMLTCYMFHMYVGVRAGGGIGDEIEDPAGDEYEIYRIIFDITFFFFVIVILLAIIQGLIIDAFGELRDQQEQVKEDMETKCFICGIGNDYFDTVPHGFETHTLQEHNLANYLFFLMYLINKDETEHTGQESYVWKMYQERCWEFFPAGDCFRKQYEDQLN
notes: Cardiac ryanodine receptor RyR2, human, pore-forming region, residues 4758-4967 (printed as 209 residues), up to the natural C-terminus; 27.3 kDa with the tag; also called hRyR2-PFR; RyR2-PFR; source: E. coli Rosetta (DE3) pLysS, pET19b; membranes solubilised in 1% LDAO, purified (Ni-NTA, Superdex 200 gel filtration in 0.1% LDAO); not shown: deca-His, N-terminal, kept
B1 was tested, and the “stoichiometry N” value was 4.

From article PMC3680380, “Functional Characterization of the Cardiac Ryanodine Receptor Pore-Forming Region” (PLoS ONE, 2013)
